The record followed here is patent publication US20230012273A1 (Boehringer Ingelheim, published 2023).

In general, EC50 refers to the concentration at which the effect is half-maximal. Higher therefore signals lower potency in that assay.

Numbering of substitutions follows the chain as printed.

The target of test [1] is T1, full-length cynomolgus SIRPβ1 (XP_005568598) on CHO cells, clone PA2 (cynomolgus monkey).
T1 construct: whole, on cells; also called SIRPβ1 XP_005568598 Clone PA2
The test can be described thus: flow cytometry, CHO cells. The protocol: (§1) Antibody binding to cells expressing full-length cynomolgus SIRPβ1 (XP_005568598) and SIRPβ1v3 (XP_005568593) is evaluated by flow cytometry. SIRPβ1- or SIRPβ1V3-expressing CHO cells are blocked with donkey IgG and incubated on ice with increasing concentrations of antibodies for 60 minutes, washed and stained with AF647-conjugated donkey F(ab′)₂ anti-human IgG secondary reagent. Cells are washed, fixed, and analyzed by flow cytometry. Median fluorescent intensity is determined and used as a measure of antibody binding.
On the technique in general: A flow cytometer gives signals particle by particle.

Test [2] addresses T2, full-length cynomolgus SIRPβ1v3 (XP_005568593) on CHO cells, clone 1HC6 (cynomolgus monkey).
T2 construct: also called SIRPβ1v3 XP-005568593 Clone 1HC6
The test can be described thus: flow cytometry, CHO cells. The method, then: as §1

Test [3] concerns the target T3, full-length human SIRPβ1 (NP_006056.2) on cells (human, UniProt O00241 30-398).
T3 construct: also called β1 WT
The test can be described thus: flow cytometry, U937 SIRPα-KO transfectants. The method, then: (§2) Antibody binding to cells expressing full-length human SIRPβ1 (NP_006056.2) and SIRPβL (NP_001129316.1) is evaluated by flow cytometry. SIRPβ1- or SIRPβL-expressing U937^{SIRPα KO} cells are blocked with donkey IgG and incubated on ice with increasing concentrations of antibodies for 60 minutes, washed and stained with AF647-conjugated donkey F(ab′)₂ anti-human IgG secondary reagent. Cells are washed, fixed, and analyzed by flow cytometry. Median fluorescent intensity is determined and used as a measure of antibody binding.

The target of test [4] is T4, full-length human SIRPβL (NP_001129316.1) on cells (human, UniProt Q5TFQ8 30-398).
T4 construct: one molecule for U937 SIRPα-KO transfectants (NP_001129316.1) and Expi-CHO transfectants (Q5TFQ8); also called SIRPβ1v3; βL WT
T4 sequence (Q5TFQ8 30-398): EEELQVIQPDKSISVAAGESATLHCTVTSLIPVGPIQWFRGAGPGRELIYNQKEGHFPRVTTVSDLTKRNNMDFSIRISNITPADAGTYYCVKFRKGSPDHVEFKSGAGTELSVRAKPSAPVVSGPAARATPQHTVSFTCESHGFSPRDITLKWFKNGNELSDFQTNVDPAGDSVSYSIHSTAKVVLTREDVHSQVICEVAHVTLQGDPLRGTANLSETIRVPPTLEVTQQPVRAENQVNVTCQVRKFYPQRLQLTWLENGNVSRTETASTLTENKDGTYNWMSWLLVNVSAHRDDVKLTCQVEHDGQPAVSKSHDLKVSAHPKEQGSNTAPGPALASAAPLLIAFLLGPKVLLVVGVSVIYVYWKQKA
The test can be described thus: flow cytometry, U937 SIRPα-KO transfectants. The method, then:
as §2

For test [5], the target named is T5, full-length human SIRPαV1 D→N on Expi-CHO cells (human, UniProt P78324 31-504).
T5 construct: the entry already carries the change (PDDV to PDNV)
T5 sequence (P78324 31-504 D131N): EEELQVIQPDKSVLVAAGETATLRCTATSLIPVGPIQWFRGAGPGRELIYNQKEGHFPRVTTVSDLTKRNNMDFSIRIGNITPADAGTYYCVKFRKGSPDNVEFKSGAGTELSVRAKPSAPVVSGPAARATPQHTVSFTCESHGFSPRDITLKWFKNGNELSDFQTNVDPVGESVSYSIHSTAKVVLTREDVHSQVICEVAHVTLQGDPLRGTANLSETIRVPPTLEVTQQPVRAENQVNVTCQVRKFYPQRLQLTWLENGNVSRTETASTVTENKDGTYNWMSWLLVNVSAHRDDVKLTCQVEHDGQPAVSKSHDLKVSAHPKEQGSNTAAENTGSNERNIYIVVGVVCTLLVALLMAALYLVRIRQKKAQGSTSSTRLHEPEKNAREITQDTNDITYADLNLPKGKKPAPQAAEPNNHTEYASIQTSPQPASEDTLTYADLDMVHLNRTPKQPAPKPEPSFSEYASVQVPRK
The test is described as follows: flow cytometry, Expi-CHO cells.

Test [6] concerns the target T6, cynomolgus SIRPγ (XP_005568591) extracellular domain + His-tag (cynomolgus monkey, UniProt Q9P1W8 29-359 (human entry)).
T6 construct: SPR analyte; also called Cyno SIRPγ XP_005568591; cynoSIRPγ; not shown: His-tag
T6 chain: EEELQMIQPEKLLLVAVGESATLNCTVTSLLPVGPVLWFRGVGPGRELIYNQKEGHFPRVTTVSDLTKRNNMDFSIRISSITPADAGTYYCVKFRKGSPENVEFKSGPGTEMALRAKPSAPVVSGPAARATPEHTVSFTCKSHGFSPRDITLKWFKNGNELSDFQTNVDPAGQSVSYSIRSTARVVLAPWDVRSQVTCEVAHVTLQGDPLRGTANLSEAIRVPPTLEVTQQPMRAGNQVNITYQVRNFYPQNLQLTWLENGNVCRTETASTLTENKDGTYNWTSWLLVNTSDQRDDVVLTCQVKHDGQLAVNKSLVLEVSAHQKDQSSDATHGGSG
The test can be described thus: SPR. An outline of the steps:
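Steps: chip deactivated with 1M ethanolamine HCl for 420 sec at 10 μl/min; anti-SIRPα antibody captured; two-fold serial dilutions of His-tagged SIRP extracellular domain injected 300 sec at 30 μl/min; dissociation monitored 600 sec. All in 1×HBS-EP+ running buffer.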
For orientation: Surface plasmon resonance follows binding to a sensor surface in real time, without labels.

Test [7] deals with T7, full-length human SIRPγ EN→DD on Expi-CHO cells (human, UniProt Q9P1W8 29-387).
T7 construct: the entry already carries the change (PENV to PDDV)
T7 chain: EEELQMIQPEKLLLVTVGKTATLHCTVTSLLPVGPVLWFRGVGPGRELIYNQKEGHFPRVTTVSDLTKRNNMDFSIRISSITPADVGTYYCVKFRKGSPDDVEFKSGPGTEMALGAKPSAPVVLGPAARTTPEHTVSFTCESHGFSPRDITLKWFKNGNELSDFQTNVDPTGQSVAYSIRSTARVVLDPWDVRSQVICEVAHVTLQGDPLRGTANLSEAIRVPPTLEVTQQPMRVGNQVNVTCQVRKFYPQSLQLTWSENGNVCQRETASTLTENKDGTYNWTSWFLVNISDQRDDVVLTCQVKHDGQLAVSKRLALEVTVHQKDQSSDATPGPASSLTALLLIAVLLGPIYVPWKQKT
The test can be described thus: flow cytometry, Expi-CHO cells expressing full-length human SIRPγ EN→DD. The protocol: (§3) Expi-CHO parental cells are transduced with lentiviruses containing either full-length wild-type human SIRPγ ([…]) or full-length human SIRPγ with amino acid point mutations (Table 64) and sorted to achieve matching expression levels. These cells are blocked with donkey IgG and incubated on ice with increasing concentrations of antibodies for 60 minutes, washed and stained with AF647-conjugated donkey F(ab′)₂ anti-human IgG antibodies. Stained cells are washed, fixed, and analyzed by flow cytometry. Median fluorescent intensity is determined and used as a measure of antibody binding.

In test [8] the target is T8, full-length human SIRPγ N→D on Expi-CHO cells (human, UniProt Q9P1W8 29-387).
T8 construct: the entry already carries the change (PENV to PEDV)
T8 sequence (Q9P1W8 29-387 N129D): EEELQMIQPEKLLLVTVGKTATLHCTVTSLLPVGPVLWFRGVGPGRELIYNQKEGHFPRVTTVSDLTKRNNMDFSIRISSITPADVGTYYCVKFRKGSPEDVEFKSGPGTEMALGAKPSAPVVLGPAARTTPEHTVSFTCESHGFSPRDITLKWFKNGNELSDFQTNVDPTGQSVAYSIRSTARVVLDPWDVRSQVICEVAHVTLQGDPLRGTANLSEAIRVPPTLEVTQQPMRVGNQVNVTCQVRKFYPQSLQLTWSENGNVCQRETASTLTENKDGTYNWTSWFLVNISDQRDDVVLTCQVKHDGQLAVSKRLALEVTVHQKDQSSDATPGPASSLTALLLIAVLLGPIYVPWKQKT
The test can be described thus: flow cytometry, Expi-CHO cells expressing full-length human SIRPγ N→D. The protocol: as §3

T3 sequence (O00241 30-398): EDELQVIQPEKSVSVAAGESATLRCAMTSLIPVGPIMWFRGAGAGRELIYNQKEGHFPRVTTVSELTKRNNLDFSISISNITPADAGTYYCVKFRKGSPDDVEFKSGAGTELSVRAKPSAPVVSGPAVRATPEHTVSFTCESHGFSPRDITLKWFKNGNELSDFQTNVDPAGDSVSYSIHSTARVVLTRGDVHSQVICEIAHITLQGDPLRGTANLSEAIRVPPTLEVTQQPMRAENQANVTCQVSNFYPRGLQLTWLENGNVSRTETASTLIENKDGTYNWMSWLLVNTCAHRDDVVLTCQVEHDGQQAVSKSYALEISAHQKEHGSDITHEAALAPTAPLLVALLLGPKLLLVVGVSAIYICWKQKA

B1: Anti-SIRPα antibody KWAR23 (antibody, V domains shown)
VH: EVQLQQSGAELVKPGASVKLSCTASGFNIKDYYIHWVQQRTEQGLEWIGRIDPEDGETKYAPKFQDKATITADTSSNTAYLHLSSLTSEDTAVYYCARWGAYWGQGTLVTVSS
VL: QIVLTQSPAIMSASPGEKVTLTCSASSSVSSSYLYWYQQKPGSSPKLWIYSTSNLASGVPARFSGSGSGTSYSLTISSMEAEDAASYFCHQWSSYPRTFGAGTKLELK
Regarding B1, the EC50 in test [1] worked out at 0.2 nM; in test [2] it was 0.4 nM; in test [3], 0.2 nM; in test [4], 0.2 nM; in test [5], 0.2 nM.

B2: Antibody D (antibody, human IgG1, kappa, L234A L235A, V domains shown)
VH: EVQLVESGGGLVQPGGSLRLSCAASGFTFSSFDMHWVRQPTGKGLEWVSTIGIAGDTYFPGSVKGRFTISRENAKNSLYLQMNSLRAGDTAVYYCARGGNWDDALDIWGQGTMVTVSS
VL: DIQMTQSPSSLSASVGDRVTITCRASQDINNYLAWFQQKPGKAPKSLIYTASSLQSGVPSKFSGSGSGTDFTLTISSLQPEDFATYYCQQYNTYPYTFGQGTKLEIKR
Consider B2, for which the EC50 in test [3] was 0.4 nM; in test [5], 9.6 nM.

B3: Antibody A (antibody, human IgG1, kappa, L234A L235A)
heavy: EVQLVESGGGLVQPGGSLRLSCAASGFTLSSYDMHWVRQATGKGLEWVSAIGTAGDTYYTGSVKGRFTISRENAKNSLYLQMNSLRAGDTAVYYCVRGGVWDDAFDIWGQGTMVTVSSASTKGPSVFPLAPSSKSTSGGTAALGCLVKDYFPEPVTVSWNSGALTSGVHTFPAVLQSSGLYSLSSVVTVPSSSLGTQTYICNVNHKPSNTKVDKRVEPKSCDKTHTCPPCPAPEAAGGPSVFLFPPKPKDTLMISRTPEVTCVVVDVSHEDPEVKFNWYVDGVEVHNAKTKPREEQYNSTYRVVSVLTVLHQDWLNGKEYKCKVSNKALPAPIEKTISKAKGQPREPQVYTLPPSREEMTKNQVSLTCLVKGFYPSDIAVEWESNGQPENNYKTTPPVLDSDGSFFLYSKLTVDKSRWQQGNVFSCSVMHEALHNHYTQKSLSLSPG
light: DIQMTQSPSSLSASVGDRVTITCRASQDINNYLAWFQQKPGKAPKSLIYTASSLHSGVPSKFSGSGSGTDFTLTISSLQPEDFATYYCQQYVSYPYTFGQGTKLEIKRTVAAPSVFIFPPSDEQLKSGTASVVCLLNNFYPREAKVQWKVDNALQSGNSQESVTEQDSKDSTYSLSSTLTLSKADYEKHKVYACEVTHQGLSSPVTKSFNRGEC
Consider B3, for which the EC50 in test [1] was 0.7 nM; in test [3], 0.2 nM.

B4: Antibody C (antibody, human IgG1, kappa, L234A L235A, V domains shown)
VH: B2 VH with F32Y, P40A, T50V, F59Y, A87V, N100S, L105F
VL: B2 VL with V15I, R18K, N92V, T93S
For B4, the EC50 in test [3] turned out to be 0.5 nM; in test [5], 2.7 nM.

B5: Antibody A10 (antibody, human IgG1, kappa, L234A L235A)
heavy: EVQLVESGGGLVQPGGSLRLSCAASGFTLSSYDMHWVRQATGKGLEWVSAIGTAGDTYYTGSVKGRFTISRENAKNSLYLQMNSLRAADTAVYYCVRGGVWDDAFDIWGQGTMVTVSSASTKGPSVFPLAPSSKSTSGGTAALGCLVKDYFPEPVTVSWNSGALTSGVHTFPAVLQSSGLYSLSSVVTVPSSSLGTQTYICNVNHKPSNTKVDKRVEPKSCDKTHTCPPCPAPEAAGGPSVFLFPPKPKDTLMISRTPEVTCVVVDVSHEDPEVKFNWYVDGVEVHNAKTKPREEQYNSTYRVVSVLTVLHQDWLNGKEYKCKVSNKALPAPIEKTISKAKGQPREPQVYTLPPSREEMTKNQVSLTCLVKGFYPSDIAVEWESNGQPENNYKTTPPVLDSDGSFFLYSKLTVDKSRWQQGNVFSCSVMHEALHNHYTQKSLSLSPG
light: B3 light
For B5, the EC50 in test [1] is 0.6 nM; in test [3] it was 0.2 nM.

B6: Antibody E (antibody, human IgG1, kappa, L234A L235A)
heavy: not shown
light: DIVMTQSPLSLPVTPGEPASISCKSSQSLLYSNGYNYLDWYLQRPGQSPQLLIYLGSNRASGVPDRFSGSGSGTDFTLKISRVEAEDVGVFYCMQALQTPLTFGGGTKVEIKRTVAAPSVFIFPPSDEQLKSGTASVVCLLNNFYPREAKVQWKVDNALQSGNSQESVTEQDSKDSTYSLSSTLTLSKADYEKHKVYACEVTHQGLSSPVTKSFNRGEC
With B6, the results for the binding result in test [6], in test [7] and in test [8] were “no binding (tested: 1000 nM)”, “no binding (tested: about 67 nM)” and “no binding (tested: about 67 nM)”, respectively. In addition, the results for the EC50 in test [2], in test [4] and in test [5] were 0.8 nM, 0.3 nM and 0.4 nM, respectively.

B7: Antibody E22 (antibody, human IgG1, kappa, L234A L235A, V domains shown)
VH: QVQLQESGPGLVKPSETLSLTCTVSGGSIRDYYWSWIRQPPGKGLEWIGFIYYNGRTFYQSSLKSRVTISLDTSKNQFSLKMTSVTAADTAVYYCARVRAYSGIGLDGTDVWGQGTTVTVSS
VL: DIVMTQSPLSLPVTPGEPASISCRSSQSLLYSTGYTYLDWYLQRPGQSPQLLIYGGSSRASGVPDRFSGSGSGTDFTLKISRVEAEDVGVFYCGQALQTPLTFGQGTKVEIKR
In the case of B7, the values for the binding result in test [6], in test [7] and in test [8] were “no binding (tested: 1000 nM)”, “no binding (tested: about 67 nM)” and “no binding (tested: about 67 nM)”, respectively. Further, the EC50 in test [2] was 1 nM; in test [4], 0.6 nM; in test [5], 0.8 nM.
